Measured values from US20180155451A1 (published 2018).

T1: FcγRIIb extracellular domain with C-terminal His tag (human, UniProt P31994 43-217)
T1 construct: extracellular domain; Expressed in FreeStyle293 cells; analyte in the Biacore assay; also called FcgRIIb; 2b; not shown: His tag at the C terminus
T1 sequence (looked up): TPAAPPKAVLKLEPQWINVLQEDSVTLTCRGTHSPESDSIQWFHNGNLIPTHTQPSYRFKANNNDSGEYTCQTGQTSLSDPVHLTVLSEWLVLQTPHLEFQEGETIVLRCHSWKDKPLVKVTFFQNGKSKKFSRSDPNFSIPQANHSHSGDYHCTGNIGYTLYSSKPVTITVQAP

T2: FcγRIIb extracellular domain with C-terminal His tag (human, UniProt P31994 43-217)
T2 construct: extracellular domain; Soluble receptor expressed in FreeStyle293 cells and used as analyte in Biacore; also called FcgRIIb; 2b; not shown: His tag at the C terminus
T2 sequence (looked up): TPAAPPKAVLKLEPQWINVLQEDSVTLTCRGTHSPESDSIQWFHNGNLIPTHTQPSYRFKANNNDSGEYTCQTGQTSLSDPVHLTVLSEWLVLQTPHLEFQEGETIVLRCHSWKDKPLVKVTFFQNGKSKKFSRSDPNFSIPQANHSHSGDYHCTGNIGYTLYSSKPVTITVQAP

B1: GpH7-A5/GpH7-B3 variant Y300_09D/GpL16-k0 (He Ab) (antibody, human IgG1, kappa)
heavy 1: not shown
heavy 2: not shown
light: DIVMTQSPLSLPVTPGEPASISCQASESLVHSNRNTYLHWYLQKPGQSPQLLIYKVSNRFSGVPDRFSGSGSGTDFTLKISRVEAEDVGVYYCSQNTHVPPTFGQGTKVEIERTVAAPSVFIFPPSDEQLKSGTASVVCLLNNFYPREAKVQWKVDNALQSGNSQESVTEQDSKDSTYSLSSTLTLSKADYEKHKVYACEVTHQGLSSPVTKSFNRGEC
notes: Heterodimerized anti-glypican-3 IgG1; the mutation stands in the GpH7-B3 chain only
B2: heterodimerized antibody GpH7-A5/GpH7-B3 variant E333_14T/GpL16-k0 (antibody, human IgG1, kappa)
heavy 1: not shown
heavy 2: not shown
light: DIVMTQSPLSLPVTPGEPASISCQASESLVHSNRNTYLHWYLQKPGQSPQLLIYKVSNRFSGVPDRFSGSGSGTDFTLKISRVEAEDVGVYYCSQNTHVPPTFGQGTKVEIERTVAAPSVFIFPPSDEQLKSGTASVVCLLNNFYPREAKVQWKVDNALQSGNSQESVTEQDSKDSTYSLSSTLTLSKADYEKHKVYACEVTHQGLSSPVTKSFNRGEC
notes: Substitution in only one H chain (GpH7-B3 side); also called He Ab
B3: GpH7-A5/GpH7-B3 variant Y300_12R/GpL16-k0 (He Ab) (antibody, human IgG1, kappa)
heavy 1: not shown
heavy 2: not shown
light: DIVMTQSPLSLPVTPGEPASISCQASESLVHSNRNTYLHWYLQKPGQSPQLLIYKVSNRFSGVPDRFSGSGSGTDFTLKISRVEAEDVGVYYCSQNTHVPPTFGQGTKVEIERTVAAPSVFIFPPSDEQLKSGTASVVCLLNNFYPREAKVQWKVDNALQSGNSQESVTEQDSKDSTYSLSSTLTLSKADYEKHKVYACEVTHQGLSSPVTKSFNRGEC
notes: as for B1
B4: GpH7-A5/GpH7-B3 variant Y300_14T/GpL16-k0 (He Ab) (antibody, human IgG1, kappa)
heavy 1: not shown
heavy 2: not shown
light: DIVMTQSPLSLPVTPGEPASISCQASESLVHSNRNTYLHWYLQKPGQSPQLLIYKVSNRFSGVPDRFSGSGSGTDFTLKISRVEAEDVGVYYCSQNTHVPPTFGQGTKVEIERTVAAPSVFIFPPSDEQLKSGTASVVCLLNNFYPREAKVQWKVDNALQSGNSQESVTEQDSKDSTYSLSSTLTLSKADYEKHKVYACEVTHQGLSSPVTKSFNRGEC
notes: as for B1
B5: heterodimerized antibody GpH7-A5/GpH7-B3 variant E333_16H/GpL16-k0 (antibody, human IgG1, kappa)
heavy 1: not shown
heavy 2: not shown
light: DIVMTQSPLSLPVTPGEPASISCQASESLVHSNRNTYLHWYLQKPGQSPQLLIYKVSNRFSGVPDRFSGSGSGTDFTLKISRVEAEDVGVYYCSQNTHVPPTFGQGTKVEIERTVAAPSVFIFPPSDEQLKSGTASVVCLLNNFYPREAKVQWKVDNALQSGNSQESVTEQDSKDSTYSLSSTLTLSKADYEKHKVYACEVTHQGLSSPVTKSFNRGEC
notes: as for B2
B6: heterodimerized antibody GpH7-A5/GpH7-B3 variant E333_13S/GpL16-k0 (antibody, human IgG1, kappa)
heavy 1: not shown
heavy 2: not shown
light: DIVMTQSPLSLPVTPGEPASISCQASESLVHSNRNTYLHWYLQKPGQSPQLLIYKVSNRFSGVPDRFSGSGSGTDFTLKISRVEAEDVGVYYCSQNTHVPPTFGQGTKVEIERTVAAPSVFIFPPSDEQLKSGTASVVCLLNNFYPREAKVQWKVDNALQSGNSQESVTEQDSKDSTYSLSSTLTLSKADYEKHKVYACEVTHQGLSSPVTKSFNRGEC
notes: as for B2
B7: heterodimerized antibody GpH7-A5/GpH7-B3 variant E333_09D/GpL16-k0 (antibody, human IgG1, kappa)
heavy 1: not shown
heavy 2: not shown
light: DIVMTQSPLSLPVTPGEPASISCQASESLVHSNRNTYLHWYLQKPGQSPQLLIYKVSNRFSGVPDRFSGSGSGTDFTLKISRVEAEDVGVYYCSQNTHVPPTFGQGTKVEIERTVAAPSVFIFPPSDEQLKSGTASVVCLLNNFYPREAKVQWKVDNALQSGNSQESVTEQDSKDSTYSLSSTLTLSKADYEKHKVYACEVTHQGLSSPVTKSFNRGEC
notes: as for B2
B8: GpH7-A5/GpH7-B3 variant Y300_13S/GpL16-k0 (He Ab) (antibody, human IgG1, kappa)
heavy 1: not shown
heavy 2: not shown
light: DIVMTQSPLSLPVTPGEPASISCQASESLVHSNRNTYLHWYLQKPGQSPQLLIYKVSNRFSGVPDRFSGSGSGTDFTLKISRVEAEDVGVYYCSQNTHVPPTFGQGTKVEIERTVAAPSVFIFPPSDEQLKSGTASVVCLLNNFYPREAKVQWKVDNALQSGNSQESVTEQDSKDSTYSLSSTLTLSKADYEKHKVYACEVTHQGLSSPVTKSFNRGEC
notes: as for B1
B9: heterodimerized antibody GpH7-A5/GpH7-B3 variant E333_11K/GpL16-k0 (antibody, human IgG1, kappa)
heavy 1: not shown
heavy 2: not shown
light: DIVMTQSPLSLPVTPGEPASISCQASESLVHSNRNTYLHWYLQKPGQSPQLLIYKVSNRFSGVPDRFSGSGSGTDFTLKISRVEAEDVGVYYCSQNTHVPPTFGQGTKVEIERTVAAPSVFIFPPSDEQLKSGTASVVCLLNNFYPREAKVQWKVDNALQSGNSQESVTEQDSKDSTYSLSSTLTLSKADYEKHKVYACEVTHQGLSSPVTKSFNRGEC
notes: as for B2
B10: heterodimerized antibody GpH7-A5/GpH7-B3 variant E333_08L/GpL16-k0 (antibody, human IgG1, kappa)
heavy 1: not shown
heavy 2: not shown
light: DIVMTQSPLSLPVTPGEPASISCQASESLVHSNRNTYLHWYLQKPGQSPQLLIYKVSNRFSGVPDRFSGSGSGTDFTLKISRVEAEDVGVYYCSQNTHVPPTFGQGTKVEIERTVAAPSVFIFPPSDEQLKSGTASVVCLLNNFYPREAKVQWKVDNALQSGNSQESVTEQDSKDSTYSLSSTLTLSKADYEKHKVYACEVTHQGLSSPVTKSFNRGEC
notes: as for B2
B11: heterodimerized antibody GpH7-A5/GpH7-B3 variant E333_12R/GpL16-k0 (antibody, human IgG1, kappa)
heavy 1: not shown
heavy 2: not shown
light: DIVMTQSPLSLPVTPGEPASISCQASESLVHSNRNTYLHWYLQKPGQSPQLLIYKVSNRFSGVPDRFSGSGSGTDFTLKISRVEAEDVGVYYCSQNTHVPPTFGQGTKVEIERTVAAPSVFIFPPSDEQLKSGTASVVCLLNNFYPREAKVQWKVDNALQSGNSQESVTEQDSKDSTYSLSSTLTLSKADYEKHKVYACEVTHQGLSSPVTKSFNRGEC
notes: as for B2
B12: GpH7-A5/GpH7-B3 variant Y300_20W/GpL16-k0 (He Ab) (antibody, human IgG1, kappa)
heavy 1: not shown
heavy 2: not shown
light: DIVMTQSPLSLPVTPGEPASISCQASESLVHSNRNTYLHWYLQKPGQSPQLLIYKVSNRFSGVPDRFSGSGSGTDFTLKISRVEAEDVGVYYCSQNTHVPPTFGQGTKVEIERTVAAPSVFIFPPSDEQLKSGTASVVCLLNNFYPREAKVQWKVDNALQSGNSQESVTEQDSKDSTYSLSSTLTLSKADYEKHKVYACEVTHQGLSSPVTKSFNRGEC
notes: as for B1
B13: heterodimerized antibody GpH7-A5/GpH7-B3 variant E333_15Y/GpL16-k0 (antibody, human IgG1, kappa)
heavy 1: not shown
heavy 2: not shown
light: DIVMTQSPLSLPVTPGEPASISCQASESLVHSNRNTYLHWYLQKPGQSPQLLIYKVSNRFSGVPDRFSGSGSGTDFTLKISRVEAEDVGVYYCSQNTHVPPTFGQGTKVEIERTVAAPSVFIFPPSDEQLKSGTASVVCLLNNFYPREAKVQWKVDNALQSGNSQESVTEQDSKDSTYSLSSTLTLSKADYEKHKVYACEVTHQGLSSPVTKSFNRGEC
notes: as for B2
B14: GpH7-A5/GpH7-B3 variant Y300_16H/GpL16-k0 (He Ab) (antibody, human IgG1, kappa)
heavy 1: not shown
heavy 2: not shown
light: DIVMTQSPLSLPVTPGEPASISCQASESLVHSNRNTYLHWYLQKPGQSPQLLIYKVSNRFSGVPDRFSGSGSGTDFTLKISRVEAEDVGVYYCSQNTHVPPTFGQGTKVEIERTVAAPSVFIFPPSDEQLKSGTASVVCLLNNFYPREAKVQWKVDNALQSGNSQESVTEQDSKDSTYSLSSTLTLSKADYEKHKVYACEVTHQGLSSPVTKSFNRGEC
notes: as for B1
B15: GpH7-A5/GpH7-B3 variant Y300_11K/GpL16-k0 (He Ab) (antibody, human IgG1, kappa)
heavy 1: not shown
heavy 2: not shown
light: DIVMTQSPLSLPVTPGEPASISCQASESLVHSNRNTYLHWYLQKPGQSPQLLIYKVSNRFSGVPDRFSGSGSGTDFTLKISRVEAEDVGVYYCSQNTHVPPTFGQGTKVEIERTVAAPSVFIFPPSDEQLKSGTASVVCLLNNFYPREAKVQWKVDNALQSGNSQESVTEQDSKDSTYSLSSTLTLSKADYEKHKVYACEVTHQGLSSPVTKSFNRGEC
notes: as for B1

Legend:
[1] = target: T3, FcγRIa extracellular domain with C-terminal His tag (human, UniProt P12314 16-292); assay: SPR (Biacore), antibody captured on antigen-peptide chip, FcγR as analyte; relative binding
T3 construct: extracellular domain; Expressed in FreeStyle293 cells; analyte in the Biacore assay; also called FcgRI; 1a; not shown: His tag at the C terminus
T3 sequence (P12314 16-292): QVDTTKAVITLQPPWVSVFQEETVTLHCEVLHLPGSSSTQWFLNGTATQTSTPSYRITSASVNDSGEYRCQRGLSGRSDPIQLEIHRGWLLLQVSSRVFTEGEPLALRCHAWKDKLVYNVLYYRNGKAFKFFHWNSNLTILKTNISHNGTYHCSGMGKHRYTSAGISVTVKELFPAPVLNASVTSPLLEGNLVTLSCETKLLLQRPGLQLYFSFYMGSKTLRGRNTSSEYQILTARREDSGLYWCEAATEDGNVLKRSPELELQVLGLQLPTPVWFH

[2] = target: T1, FcγRIIb extracellular domain with …; assay: as above
[3] = target: T4, FcγRIa extracellular domain with C-terminal His tag (human, UniProt P12314 16-292); assay: SPR Biacore, relative binding amount
T4 construct: extracellular domain; Soluble receptor expressed in FreeStyle293 cells and used as analyte in Biacore; also called FcgRI; 1a; not shown: His tag at the C terminus
T4 sequence (P12314 16-292): as above

[4] = target: T2, FcγRIIb extracellular domain with …; assay: SPR Biacore, relative binding amount

Row | Binder | He/Con_1a [1] | He/Con_2b [2] | He/Con_1a [3] | He/Con_2b [4]
1 | B1 | 112 % of GpH7-A5/GpH7-B3/GpL16-k0 (=100) | 93.2 % of GpH7-A5/GpH7-B3/GpL16-k0 (=100) |  | 
2 | B2 |  |  | 102 % of GpH7-A5/GpH7-B3/GpL16-k0 (=100) | 86.1 % of GpH7-A5/GpH7-B3/GpL16-k0 (=100)
3 | B3 | 105 % of GpH7-A5/GpH7-B3/GpL16-k0 (=100) | 41.2 % of GpH7-A5/GpH7-B3/GpL16-k0 (=100) |  | 
4 | B4 | 112 % of GpH7-A5/GpH7-B3/GpL16-k0 (=100) | 55.6 % of GpH7-A5/GpH7-B3/GpL16-k0 (=100) |  | 
5 | B5 |  |  | 101 % of GpH7-A5/GpH7-B3/GpL16-k0 (=100) | 83.3 % of GpH7-A5/GpH7-B3/GpL16-k0 (=100)
6 | B6 |  |  | 103 % of GpH7-A5/GpH7-B3/GpL16-k0 (=100) | 81.8 % of GpH7-A5/GpH7-B3/GpL16-k0 (=100)
7 | B7 |  |  | 104 % of GpH7-A5/GpH7-B3/GpL16-k0 (=100) | 94.3 % of GpH7-A5/GpH7-B3/GpL16-k0 (=100)
8 | B8 | 111 % of GpH7-A5/GpH7-B3/GpL16-k0 (=100) | 53.9 % of GpH7-A5/GpH7-B3/GpL16-k0 (=100) |  | 
9 | B9 |  |  | 102 % of GpH7-A5/GpH7-B3/GpL16-k0 (=100) | 80.6 % of GpH7-A5/GpH7-B3/GpL16-k0 (=100)
10 | B10 |  |  | 102 % of GpH7-A5/GpH7-B3/GpL16-k0 (=100) | 95 % of GpH7-A5/GpH7-B3/GpL16-k0 (=100)
11 | B11 |  |  | 102 % of GpH7-A5/GpH7-B3/GpL16-k0 (=100) | 80.4 % of GpH7-A5/GpH7-B3/GpL16-k0 (=100)
12 | B12 | 112 % of GpH7-A5/GpH7-B3/GpL16-k0 (=100) | 84.1 % of GpH7-A5/GpH7-B3/GpL16-k0 (=100) |  | 
13 | B13 |  |  | 101 % of GpH7-A5/GpH7-B3/GpL16-k0 (=100) | 94.4 % of GpH7-A5/GpH7-B3/GpL16-k0 (=100)
14 | B14 | 111 % of GpH7-A5/GpH7-B3/GpL16-k0 (=100) | 87 % of GpH7-A5/GpH7-B3/GpL16-k0 (=100) |  | 
15 | B15 | 107 % of GpH7-A5/GpH7-B3/GpL16-k0 (=100) | 51.6 % of GpH7-A5/GpH7-B3/GpL16-k0 (=100) |  | 
